{"source": "paper PMC4322731", "origin": "cited, not measured here", "biological_target": "Cys12 (UniProt position 13, SVLFVCLGNIC)", "conditions": "not stated (discussed as the resting-state thiolate form of the free enzyme)"}
{"substance": "Bovine heart low molecular weight protein tyrosine phosphatase (BHPTP, LMW-PTP, class II PTP) (Bos taurus)", "values": [{"measurement": "pKa", "value": "less than 4"}]}
